In this test the target is EphA3 antigen (UniProt P29320). In words: ELISA. (In an ELISA, binding on a coated surface is turned into a signal by an enzyme label.)
Chain of UniProt P29320 (P29320 21-541 limits assumed): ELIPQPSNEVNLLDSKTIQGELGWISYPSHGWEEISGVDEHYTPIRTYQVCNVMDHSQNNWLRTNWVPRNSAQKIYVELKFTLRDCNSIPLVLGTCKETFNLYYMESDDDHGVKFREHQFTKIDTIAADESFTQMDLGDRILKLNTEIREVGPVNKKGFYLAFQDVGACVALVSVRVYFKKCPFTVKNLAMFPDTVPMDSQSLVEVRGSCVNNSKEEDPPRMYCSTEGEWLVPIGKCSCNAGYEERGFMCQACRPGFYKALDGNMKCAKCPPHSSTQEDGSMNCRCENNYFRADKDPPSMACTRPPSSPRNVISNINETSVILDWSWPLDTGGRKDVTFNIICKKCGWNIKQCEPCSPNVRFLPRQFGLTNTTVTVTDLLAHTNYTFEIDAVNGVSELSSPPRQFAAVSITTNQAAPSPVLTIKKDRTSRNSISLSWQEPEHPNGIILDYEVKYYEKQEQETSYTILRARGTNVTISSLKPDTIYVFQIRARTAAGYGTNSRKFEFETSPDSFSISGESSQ

On to monoclonal antibody IIIA4, for which the AFFINITY was determined as 2.5 nM.

These data come from US20110243934A1.
